According to publication PMC6094050, “O-GlcNAcylation Signal Mediates Proteasome Inhibitor Resistance in Cancer Cells by Stabilizing NRF1” (Molecular and Cellular Biology, 2018):

Target: T1, GST–HCF-1-C (GST fusion of the C-terminal half of human HCF-1, 1012–2036) (human, UniProt P51610 1012-2035)
T1 construct: HCF-1 (host cell factor C1), human, C-terminal half, residues 1012-2036 as printed; the printed end 2036 may count the stop codon; also called pGEX4T-1-hHCF-1-C; source: E. coli BL21(DE3), purified from soluble lysates
T1 sequence (looked up): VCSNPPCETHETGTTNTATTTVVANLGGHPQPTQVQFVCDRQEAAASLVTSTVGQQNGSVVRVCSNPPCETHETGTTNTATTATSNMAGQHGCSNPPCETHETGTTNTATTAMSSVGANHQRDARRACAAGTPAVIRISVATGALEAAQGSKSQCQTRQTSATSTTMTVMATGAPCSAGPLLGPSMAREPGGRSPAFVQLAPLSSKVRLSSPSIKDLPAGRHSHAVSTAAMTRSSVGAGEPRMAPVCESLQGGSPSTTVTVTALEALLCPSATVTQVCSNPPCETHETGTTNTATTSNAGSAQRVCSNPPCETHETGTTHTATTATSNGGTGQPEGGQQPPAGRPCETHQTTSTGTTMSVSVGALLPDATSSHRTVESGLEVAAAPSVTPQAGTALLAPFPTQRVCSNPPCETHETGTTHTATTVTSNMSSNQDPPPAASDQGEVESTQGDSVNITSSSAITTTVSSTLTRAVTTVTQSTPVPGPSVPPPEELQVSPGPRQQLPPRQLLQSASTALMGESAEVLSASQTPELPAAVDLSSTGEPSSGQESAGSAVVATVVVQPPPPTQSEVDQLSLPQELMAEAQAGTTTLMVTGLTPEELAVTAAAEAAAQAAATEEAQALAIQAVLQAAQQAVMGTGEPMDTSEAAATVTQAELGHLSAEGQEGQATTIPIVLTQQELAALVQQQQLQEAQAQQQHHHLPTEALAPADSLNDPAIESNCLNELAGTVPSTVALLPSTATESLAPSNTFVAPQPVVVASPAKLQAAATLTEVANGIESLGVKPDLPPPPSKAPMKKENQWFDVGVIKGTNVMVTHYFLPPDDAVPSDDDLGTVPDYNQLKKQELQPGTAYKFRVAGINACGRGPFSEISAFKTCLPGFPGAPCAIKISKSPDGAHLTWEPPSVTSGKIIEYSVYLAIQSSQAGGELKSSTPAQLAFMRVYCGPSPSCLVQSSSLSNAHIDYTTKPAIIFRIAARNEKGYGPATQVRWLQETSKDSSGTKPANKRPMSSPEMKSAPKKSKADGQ
Experiment: pull-down; glutathione-Sepharose-immobilized GST-OGT and GST–HCF-1-C incubated with recombinant His6-tagged NRF1 fragments Fr. 1 and Fr. 2; washed extensively with PBS-T; immunoblot with anti-His6 and anti-GST
Details: both partners purified

- binding result: binds
B1: mNRF1-Neh6L-His6 (Fr. 2; 431–580) (domain or fragment, mouse, UniProt Q61985 431-580, looked up)
chain: GFNPVQASQLEEEFDSDSGLSLDSSHSPSSLSSSEGSSSSSSSSSSSSASSSASSSFSEEGAVGYSSDSETLDLEEAEGAVGYQPEYSKFCRMSYQDPSQLSCLPYLEHVGHNHTYNMAPSALDSADLPPPSTLKKGSKEKQADFLDKQM
notes: NRF1, mouse, Neh6L domain, residues 431-580; The name is printed both as NRF1-Neh6L-His6 and as His6-NRF1-Neh6L; also called His6-NRF1-Neh6L; fragment 2; source: E. coli BL21(DE3), purified (Ni-NTA agarose)
